# Assay results reported in publication PMC12117401.
# Biological target: Nb55 (Lama glama (llama immune VHH library), UniProt PDB:9GXH_1)
# Test: ITC
row,Binder,binding result
1,GAAAAACCCCCTTTTTC (structured_DNA) [B-DNA hairpin],no binding
2,GGGCGCGGGAGGAATTGGGCGGG (structured_DNA) [Bcl2],no binding
3,TGAGGGTGGGTAGGGTGGGTAA (structured_DNA) [c-Myc],no binding
4,GACCCCGCCCCCGGCCCGCCCCCG (structured_DNA) [VEGF],no binding
5,GGTGGGTGTGGTTGG (structured_DNA) [TBA T4G],no binding
